# Where two headings read alike, the source gives them in different places.
# B1: plasmin (protein)
# chain: KVYLSECKTGNGKNYRGTMSKTKNGITCQKWSSTSPHRPRFSPATHPSEGLEENYCRNPDNDPQGPWCYTTDPEKRYDYCDILECEEECMHCSGENYDGKISKTMSGLECQAWDSQSPHAHGYIPSKFPNKNLKKNYCRNPDRELRPWCFTTDPNKRWELCDIPRCTTPPPSSGPTYQCLKGTGENYRGNVAVTVSGHTCQHWSAQTPHTHNRTPENFPCKNLDENYCRNPDGKRAPWCHTTNSQVRWEYCKIPSCDSSPVSTEQLAPTAPPELTPVVQDCYHGDGQSYRGTSSTTTTGKKCQSWSSMTPHRHQKTPENYPNAGLTMNYCRNPDADKGPWCFTTDPSVRWEYCNLKKCSGTEASVVAPPPVVLLPDVETPSEEDCMFGNGKGYRGKRATTVTGTPCQDWAAQEPHRHSIFTPETNPRAGLEKNYCRNPDGDVGGPWCYTTNPRKLYDYCDVPQCAAPSFDCGKPQVEPKKCPGRVVGGCVAHPHSWPWQVSLRTRFGMHFCGGTLISPEWVLTAAHCLEKSPRPSSYKVILGAHQEVNLEPHVQEIEVSRLFLEPTRKDIALLKLSSPAVITDKVIPACLPSPNYVVADRTECFITGWGETQGTFGAGLLKEAQLPVIENKVCNRYEFLNGRVQSTELCAGHLAGGTDSCQGDSGGPLVCFEKDKYILQGVTSWGLGCARPNKPGVYVRVSRFVTWIEGVMRNN
# What was measured:
# FVIII-R336Q/R562Q [1] = tested on: FVIII-R336Q/R562Q
# wild-type FVIII [2] = tested on: wild-type FVIII
# FVIII-R336Q/R562Q [3] = molecular target: FVIII-R336Q/R562Q; remark: listed apart in the source
# wild-type FVIII [4] = molecular target: wild-type FVIII; remark: listed apart in the source
# Sequence of FVIII-R336Q/R562Q (chain, as listed by the source R336Q R562Q): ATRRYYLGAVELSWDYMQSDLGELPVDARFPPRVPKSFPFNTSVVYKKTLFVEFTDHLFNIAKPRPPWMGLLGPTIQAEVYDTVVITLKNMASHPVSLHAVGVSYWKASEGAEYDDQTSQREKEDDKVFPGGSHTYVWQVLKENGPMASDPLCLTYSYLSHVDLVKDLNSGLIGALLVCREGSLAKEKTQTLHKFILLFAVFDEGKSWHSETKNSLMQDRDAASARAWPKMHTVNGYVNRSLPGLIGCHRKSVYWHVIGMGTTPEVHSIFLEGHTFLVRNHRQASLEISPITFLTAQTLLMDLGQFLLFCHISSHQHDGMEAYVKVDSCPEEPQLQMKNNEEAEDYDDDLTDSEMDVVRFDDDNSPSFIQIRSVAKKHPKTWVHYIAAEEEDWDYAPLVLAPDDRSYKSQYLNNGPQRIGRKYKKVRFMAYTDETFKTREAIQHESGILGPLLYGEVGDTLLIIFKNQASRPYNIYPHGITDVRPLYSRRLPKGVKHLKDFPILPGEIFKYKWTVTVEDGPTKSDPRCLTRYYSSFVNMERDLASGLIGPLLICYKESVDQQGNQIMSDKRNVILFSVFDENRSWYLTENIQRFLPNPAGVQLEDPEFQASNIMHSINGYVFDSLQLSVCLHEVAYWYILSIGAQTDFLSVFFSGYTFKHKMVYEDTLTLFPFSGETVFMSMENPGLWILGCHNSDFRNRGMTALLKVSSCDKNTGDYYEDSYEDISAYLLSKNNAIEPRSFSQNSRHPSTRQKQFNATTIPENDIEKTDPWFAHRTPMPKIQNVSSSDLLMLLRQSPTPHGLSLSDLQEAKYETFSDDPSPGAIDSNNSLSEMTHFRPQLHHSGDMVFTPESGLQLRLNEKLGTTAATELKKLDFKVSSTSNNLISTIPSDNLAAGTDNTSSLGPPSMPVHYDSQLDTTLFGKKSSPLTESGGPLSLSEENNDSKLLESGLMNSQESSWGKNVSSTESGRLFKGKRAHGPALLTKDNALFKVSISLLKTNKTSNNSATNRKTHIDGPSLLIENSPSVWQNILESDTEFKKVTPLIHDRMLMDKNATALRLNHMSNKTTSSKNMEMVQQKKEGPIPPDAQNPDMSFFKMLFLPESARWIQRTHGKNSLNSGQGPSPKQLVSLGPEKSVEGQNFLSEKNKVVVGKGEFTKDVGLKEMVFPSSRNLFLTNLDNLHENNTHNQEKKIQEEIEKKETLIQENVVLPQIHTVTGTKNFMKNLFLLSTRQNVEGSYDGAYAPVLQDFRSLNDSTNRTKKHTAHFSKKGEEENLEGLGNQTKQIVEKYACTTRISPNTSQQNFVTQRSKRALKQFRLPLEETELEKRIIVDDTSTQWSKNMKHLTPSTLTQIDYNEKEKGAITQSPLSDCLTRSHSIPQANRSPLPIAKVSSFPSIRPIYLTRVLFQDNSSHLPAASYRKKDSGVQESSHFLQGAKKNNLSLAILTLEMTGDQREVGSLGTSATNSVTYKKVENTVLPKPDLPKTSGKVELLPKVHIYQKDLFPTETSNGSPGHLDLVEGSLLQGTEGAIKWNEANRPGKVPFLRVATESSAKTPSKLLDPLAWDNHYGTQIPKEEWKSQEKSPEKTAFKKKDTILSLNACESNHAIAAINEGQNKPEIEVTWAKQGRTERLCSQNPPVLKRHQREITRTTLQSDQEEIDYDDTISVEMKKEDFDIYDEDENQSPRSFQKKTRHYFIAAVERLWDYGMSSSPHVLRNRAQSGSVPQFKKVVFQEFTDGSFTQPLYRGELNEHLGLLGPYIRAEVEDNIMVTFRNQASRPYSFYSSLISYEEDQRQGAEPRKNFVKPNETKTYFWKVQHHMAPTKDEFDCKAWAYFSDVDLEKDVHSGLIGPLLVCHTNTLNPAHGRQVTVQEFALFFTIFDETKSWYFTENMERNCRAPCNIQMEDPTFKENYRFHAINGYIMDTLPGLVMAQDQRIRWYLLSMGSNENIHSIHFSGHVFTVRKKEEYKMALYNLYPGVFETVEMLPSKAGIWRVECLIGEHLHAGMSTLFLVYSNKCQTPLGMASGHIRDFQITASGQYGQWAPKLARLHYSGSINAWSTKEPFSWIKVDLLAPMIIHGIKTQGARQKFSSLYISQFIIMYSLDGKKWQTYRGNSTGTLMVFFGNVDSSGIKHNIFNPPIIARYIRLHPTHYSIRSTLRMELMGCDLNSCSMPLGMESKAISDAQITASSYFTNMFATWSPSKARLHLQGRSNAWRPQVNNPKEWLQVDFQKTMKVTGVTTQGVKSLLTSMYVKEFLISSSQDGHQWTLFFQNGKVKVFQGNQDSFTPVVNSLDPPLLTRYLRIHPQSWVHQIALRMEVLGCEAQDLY
# Sequence of wild-type FVIII (chain, as listed by the source): as the sequence (chain, as listed by the source R336Q R562Q) above, with Q336R, Q562R counted along it
Molecule,Western Blot analysis of cleavage fragments (FVIII-R336Q/R562Q [1]),Western Blot analysis of cleavage fragments (wild-type FVIII [2]),Western blot cleavage at R372 (wild-type FVIII [2]),Western Blot analysis of cleavage fragments (FVIII-R336Q/R562Q [3]),Western Blot analysis of cleavage fragments (wild-type FVIII [4])
activated protein C,no such cleavage fragments were seen with FVIII-QQ,all serine proteases cleaved at R336 or R562 in FVIII-WT,–,–,–
thrombin (IIa),no such cleavage fragments were seen with FVIII-QQ,all serine proteases cleaved at R336 or R562 in FVIII-WT,thrombin (IIa) as well as multiple serine proteases can also cleave R372 of FVIII,–,–
FXa,no such cleavage fragments were seen with FVIII-QQ,all serine proteases cleaved at R336 or R562 in FVIII-WT,–,–,–
FIXa,no such cleavage fragments were seen with FVIII-QQ,all serine proteases cleaved at R336 or R562 in FVIII-WT,–,–,–
B1,–,–,–,no such cleavage fragments were seen with FVIII-QQ,all serine proteases cleaved at R336 or R562 in FVIII-WT

# — patent publication US20260242823
